In a protein production outcome set (Wang et al. 2014):

Assay: label from the status in PepcDB records
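Also: failed if final PepcDB status was selected cloned or expressed and not failed if soluble or beyond.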

Row | Sequence | protein production
1 | MAIKLSSIDQFEQVIEENKYVFVLKHSETCPISANAYDQFNKFLYERDMDGYYLIVQQERDLSDYIAKKTNVKHESPQAFYFVNGEMVWNRDHGDINVSSLAQAEE | not failed
2 | MAILEYIMLLFIGLIAGTVGSLVGLGGGIIIVPLLIGLHSLSPQLAVGTSMVTVVFTGLSSTLTYMKHKRVDYKSGLILFIGSGPGGIIGSWANKFLNQDTFSLYFGIFLIFVSILLMLRDKLKPLSLSNTSVIKRSFTDNDGNTVHYQFPPFLAIFIAFIVGFISGLFGIGGGALLVPAMMLLFAFPAHIAVATSMFIVFLSAIVSSATHISLGNVSWIYALILIPGAWIGGKIGAYINTKLSGNAVINLLRITLIILGTRLIIISLL | failed
3 | MAILFAVVARGTTILAKHAWCGGNFLEVTEQILAKIPSENNKLTYSHGNYLFHYICQDRIVYLCITDDDFERSRAFNFLNEIKKRFQTTYGSRAQTAPPYAMNSEFSSVLAAQLKHHS | not failed
4 | MAIMASRKHLKRFKSPVHWPIHPKEYKWTVKPSPGPHAIENSLPLMIIVRDILKVADNAREARKIINSGEVLVDGRPRKNYKFPVGFMDVVSIPRTGDVYRVLPDERGRLVLHPIDEENAGFKLCKIVNKTTIKGGRTQLNLHDGRNYLSDDEFRVGDVVKLSIPEQEILERIPFEKDSLGLVTGGRHTGEIGKIKKINITRSSMPNTAVIETGAGKTFLTLKDYVFVIGKDESVISLPGGKLEHHHHHH | failed
5 | MAINLTPLIGFLPEFIISAIISGFLFQAITNDKTFVRPIIGGKKPEQKSILKKVSSRRKPVDMKEYERMKNKTRYQALLFNSNMHIISSSALTVSAWILLIYAMIGIGKSSIFMPTFGFKINFIVYALLVIIFSVAMISSFSQVVRLREIYRIIASVFAVLSVVIFFEIPAMKWLFYIFPKVIVSYIFIYFAGLFILFLCYSLWWKLAPKITFYVSFYSSILTYFAIVSLMIYNSIPKL | failed
6 | MAINRSSDHESDENTRLYHPYQNYQVPIKSQYLYKLPTSPEFLFTEESLKQRRSWGENLTFYTGTGYLAGSVAGASAGIFSGIKSFENGDTTKLKINRILNSSGQAGRTWGNRVGIVGLIYAGIESGVVAVTDKDDVWTSVVAGLGTGAVFRAARGVRSAAVAGAFGGIAAGAVVAGKQVFKRDPERGSITLDP | failed
7 | MAIQGSRTEGLGGYTFDDLAVVMGTYNEEEAIGTVLDDIATVTDGRAEVICVDGSSDRTPEIARDHGATVIEQEPQGYGVAVREAVLTPDRPVVVTTDCDDTYPMERLPDFLAEINDGADVVSGDRLYYGAEQMPAMNKLGNELFALLASVLMGKRVHDTTTGMRAYRREVLQKIVWTENTGLSAELLMRPLMRGYDVRERPIEYDERKGETKLDPFSGGAAIAKSIVRVALEERFRLEHHHHHH | not failed
8 | MAITVSIELNRDLEIPASYDEVFDLLADVPKSASHFPKVDKLVDLGNNAYRWEMEKVGVDKHAIQSVYACTYHADKEAGKITWSPIKGEGNGVVSGSWTLSAKGDNATAVKFQTSAELTVPLPSLLKLAISPVIKHEFNSLVDTYMANLKKAFLEHHHHHH | not failed
9 | MAIYTVKALITDPIDEILIKTLREKGIQVDYMPEISKEELLNIIGNYDIIVVRSRTKVTKDVIEKGKKLKIIARAGIGLDNIDTEEAEKRNIKVVYAPGASTDSAVELTIGLMIAAARKMYTSMALAKSGIFKKIEGLELAGKTIGIVGFGRIGTKVGIIANAMGMKVLAYDILDIREKAEKINAKAVSLEELLKNSDVISLHVTVSKDAKPIIDYPQFELMKDNVIIVNTSRAVAVNGKALLDYIKKGKVYAYATDVFWNEPPKEEWELELLKHERVIVTTHIGAQTKEAQKRVAEMTTQNLLNAMKELGMI | not failed
10 | MAKAAKRFRTPSTTRVLYVRHAHAHGRQTWGGDDNKRPLDKKGRRQAEMLVPMLLPFKPTAIYSAVPDRCQATALPLADELGLDVSVNRLFGDDAWETDPEACKKRFTDVVAQGGVPMIVGQGDIIPEMIKWFSENGTLPIDEKIKAKKGSVWVLSFHDGVFTGADYLEHHHHHH | failed
11 | MAKALEQPFDVANIPGPKMATLLEKGKPVANMIKKAKRPLLIVGPDMTDEMFERVKKFVEKDITVVATGSAITRFIDAGLGEKVNYAVLHELTQFLLDPDWKGFDGQGNYDLVLMLGSIYYHGSQMLAAIKNFAPHIRALAIDRYYHPNADMSFGNLWKKEEDYLKLLDEILAEL | not failed
12 | MAKAMELWVGEMKKMSEKINTRNPLMQRKNSTSVVSKQQQGSEEERGLINQKIREKNEAVTMSELTVCLLMDRFVPW | failed
13 | MAKENEHFLKPDNQSPEESEQLDTVSMEPSQEIWNSTEQETSELQSDTFLSPATVRNSQTTDGYGQAEIVPATPSFMSAAGDSEEVGTPGRSLSEVFSASSLGQRSTRAADRESLQRHELGTNSFSLFSPEKEISFRNRKELEAPSGAAEEIERRVIWGTNVNVDECEQKIKKFLYEFTATTVQQDYEDGDGLQQAKPKPYYLELLTHANEMQYEVINIDLQHVFEFDSELYAYVVTYPTELIAIFDQTLQEVCKEMFATDDSSDIMSSGTSNFHAGRLITRMYNMKDTEIHSMREIDPSHIHQMIGVRGMVVRCSSVIPNMNRAFYSCNNCHWSLFVDIQRGKIEEPIQCDKCQARNSFMLIHNRSVFSDKQMIRIQETPETVPQGETPATMTIVAYDSLVDSARPGDQIEVTGILRAVSVRINPKQRSIRSVFRTYIDAIHILKGKQGRLSNSTEHMDTTSDYYPIGSDTSENALYYFERERSIREISQDPLLYDKLSRSIAPSIYGHEDLKKGILLQLFGGTRKDFSASGGGHFRSDIHVLLVGDPGTSKSLFLQYVHRIAPRGLYTSGRGSSAVGLTAYVTRDPDSNDMVLESGALVLSDKGICCIDEFDKMTDSTRSILHEAMEQQTVSIAKAGIICSLNARTSVLAAANPVESRYNPKLSVVDNIQLPPTLLSRFDLIYLILDNANPEEDKRLGNHITSLFSADTAVVHSDEDPLPSLEPATIHMPNSSHSFLDSTTLASYISYAREKVHPKLNDDAVQRLTKGYVEMRRMGNASKSWSGGIKTITATPRQLESLIRLSEAHAKMRLSDVVESQDVDEALRLVQVAMQQSAIDPITGTIDMDLITTGKSATKRSRIAKLGEAIFQYLQQTKTSDTAVRTSDVLMEVKRSSSMPFTEQDFDDAIHYLVEEERIFRVAGGLRVGTSW | failed
14 | MAKGDQYQAHTEKYHDKKSKKSYKPVWIIISFIILITILLLPTPAGLPVMAKAALAILAFAVVMWVTEAVTYPVSATLILGLMILLLGLSPVQDLSEKLGNPKSGDIILKGSDILGTNNALSHAFSGFSTSAVALVAAALFLAVAMQETNLHKRLALLVLSIVGNKTRNIVIGAILVSIVLAFFVPSATARAGAVVPILLGMIAAFNVSKDSRLASLLIITAVQAVSIWNIGIKTAAAQNIVAINFINQNLGHDVSWGEWFLYAAPWSIIMSIALYFIMIKFMPPEHDAIEGGKELIKKELNKLGPVSHREWRLIVISVLLLFFWSTEKVLHPIDSASITLVALGIILMPKIGVITWKGVEKKIPWGTIIVFGVGISLGNVLLKTGAAQWLSDQTFGLMGLKHLPIIATIALITLFNILIHLGFASATSLASALIPVFISLTSTLNLGDHAIGFVLIQQFVISFGFLLPVSAPQNMLAYGTGTFTVKDFLKTGIPLTIVGYILVIVFSLTYWKWLGLV | failed
15 | MAKKAMENGYKLILGSQSMARKQILAEMGYDFTIVTADIDEKAIRKEKPEDLVVTIAEAKANEIILKLGGENQFTQDSQPTLLITADTVVVYKGWDKAEVYFHEIPEHVIDDLIDDAITFKVAGGLMLEHPLISPFIDSVVGGVDTVMGLSKELTEKFINDVL | failed
16 | MAKKENQQPDNHVGEVVSRSEQFIEKNMTKIGLVILGVFIIVAGIFAYKRFVSEPKAREAAAKVYLAEDKFIQELDSAALNGNGANEMGLLTVIKKYSGSDASNLAKAYAGICYYNLGEYQKAIDHLKGFSSKENMVAPSITRLIGDCYVQLKKYEEAVGYFEKAAAAASNDAITPGCLIKAGRVYEELKQYDKALAAYKQVKEKYYTSMEANTVEADIIRVKTKGAK | failed
